Here are results for six molecules from US20150045540A1 (published 2015).

Changes are numbered by the printed parent chain.

To fix the notation:
T1: VEGF (Example 4) (UniProt P15692 27-191)
T1 chain: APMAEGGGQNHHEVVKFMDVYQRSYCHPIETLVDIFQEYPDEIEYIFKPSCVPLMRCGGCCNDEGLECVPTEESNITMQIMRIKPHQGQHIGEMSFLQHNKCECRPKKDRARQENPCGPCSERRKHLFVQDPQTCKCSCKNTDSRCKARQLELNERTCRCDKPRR

B1: 2 (antibody, V domains shown)
V domain 1: FQPVLHQPPAMSSALGTTIRLTCTLRNDHDIGVYSVYWYQQRPGHPPRFLLRYFSQSDKSQGPQVPPRFSGSKDVARNRGYLSISELQPEDEAMYYCAMGARSSVTHVFGSGTQLTVLS
V domain 2: QPVLHQPPAMSSALGTTIRLTCTLRNDHDIGVYSVYWYQQRPGHPPRFLLRYFSQSDKSQGPQVPPRFSGSKDVARNRGYLSISELQPEDEAMYYCAMGARSSVTHVFGSGTQLTVLS
B2: 7 (antibody, V domains shown)
V domain 1: B1 V domain 1 with F1P
V domain 2: B1 V domain 2
B3: 3 (antibody, V domains shown)
V domain 1: B1 V domain 1
V domain 2: B1 V domain 2
B4: 4 (antibody, V domains shown)
V domain 1: B1 V domain 1
V domain 2: B1 V domain 2
B5: 5 (antibody, V domains shown)
V domain 1: B1 V domain 1 with F1P
V domain 2: B1 V domain 2
B6: 6 (antibody, V domains shown)
V domain 1: B1 V domain 1 with F1P
V domain 2: B1 V domain 2

For the first test, the target named is T1, VEGF (Example 4). Nature of the test: VEGF-KDR inhibition.
With B1, inhibition was half-maximal at 0.391 nM (IC50).

With B2, the IC50 was found to be 0.362 nM.

For the molecule B3, the half-maximal inhibitory concentration (IC50) came out at 0.429 nM.

Consider B4, for which half-maximal inhibition (IC50) was put at 0.449 nM.

Consider B5, for which 0.409 nM corresponded to half-maximal inhibition (IC50).

As for B6, the concentration for half-maximal inhibition (IC50) was 0.589 nM.

The target of the next test is ErbB3 (UniProt P21860 20-643). Nature of the test: binding.
ErbB3, sequence (P21860 20-643): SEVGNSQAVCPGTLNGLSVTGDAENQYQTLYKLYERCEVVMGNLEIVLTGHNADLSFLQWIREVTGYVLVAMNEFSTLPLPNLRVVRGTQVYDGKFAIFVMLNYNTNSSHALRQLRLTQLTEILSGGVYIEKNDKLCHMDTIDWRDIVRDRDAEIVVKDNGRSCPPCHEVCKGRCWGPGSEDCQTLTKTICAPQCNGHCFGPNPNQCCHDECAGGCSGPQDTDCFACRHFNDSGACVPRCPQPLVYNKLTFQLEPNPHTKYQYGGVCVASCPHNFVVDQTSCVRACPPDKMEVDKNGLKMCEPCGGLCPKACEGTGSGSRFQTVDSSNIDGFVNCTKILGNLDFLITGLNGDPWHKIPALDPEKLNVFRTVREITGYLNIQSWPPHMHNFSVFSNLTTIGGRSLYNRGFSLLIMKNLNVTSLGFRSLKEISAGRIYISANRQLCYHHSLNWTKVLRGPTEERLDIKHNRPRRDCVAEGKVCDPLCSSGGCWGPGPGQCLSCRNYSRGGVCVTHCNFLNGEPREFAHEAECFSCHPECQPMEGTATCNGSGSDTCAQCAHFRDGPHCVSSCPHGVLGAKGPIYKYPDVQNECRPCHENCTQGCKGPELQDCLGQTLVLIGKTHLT
Consider B1, for which the concentration giving a half-maximal response (EC50) worked out at 0.051 nM.

With B2, the concentration for a half-maximal effect (EC50) came out at 0.037 nM.

In turn, B3 registered a concentration for a half-maximal effect (EC50) of 0.05 nM.

As to B4, the concentration giving a half-maximal response (EC50) came out at 0.046 nM.

For B5, the EC50 was 0.058 nM.

As for B6, the EC50 came to 0.048 nM. The EC50 values of the last two molecules are within 1.5-fold of each other.

In another test the target is T1, VEGF (Example 4). Nature of the test: binding.
B1: the concentration for a half-maximal effect (EC50) was 0.016 nM.

As to B2, the response was half-maximal at 0.013 nM (EC50).

The molecule B3 gave a 50% effective concentration (EC50) of 0.015 nM. The EC50 values of the last two molecules are within 1.5-fold of each other.

Regarding B4, the EC50 is 0.015 nM.

On to B5, for which the EC50 worked out at 0.012 nM.

B6 showed an EC50 of 0.012 nM.
